Measured values from patent publication US20180258181A1 (Bayer, published 2018).

What was measured:
[1] = biological target: T1, mesothelin on CHO-A9 cells (CHO-K1 stably transfected with the GPI-anchored C-terminal part of mesothelin) (Homo sapiens (Human), UniProt Q13421 287-598, GPI anchor); test: FACS with Scatchard analysis, IgG1 on CHO-A9 cells
T1 construct: In the immunoblots the protein stood in a denatured cell extract; also called mesothelin-expressing CHO-A9 cells

[2] = biological target: T1, mesothelin on CHO-A9 cells (CHO-K1 …); test: live cell ELISA, IgG1 on CHO-A9 cells
[3] = biological target: T2, human mesothelin (recombinant, soluble, purified; 40 kDa C-terminal polypeptide of the mesothelin precursor) (human, UniProt Q13421 296-598, limits assumed); test: Biacore pairwise binding, mesothelin (50 nM) captured by immobilized MF-T, second antibody 200 nM
T2 construct: also called soluble mesothelin
T2 sequence (Q13421 other isoform, or with tags, fused parts or gaps limits assumed): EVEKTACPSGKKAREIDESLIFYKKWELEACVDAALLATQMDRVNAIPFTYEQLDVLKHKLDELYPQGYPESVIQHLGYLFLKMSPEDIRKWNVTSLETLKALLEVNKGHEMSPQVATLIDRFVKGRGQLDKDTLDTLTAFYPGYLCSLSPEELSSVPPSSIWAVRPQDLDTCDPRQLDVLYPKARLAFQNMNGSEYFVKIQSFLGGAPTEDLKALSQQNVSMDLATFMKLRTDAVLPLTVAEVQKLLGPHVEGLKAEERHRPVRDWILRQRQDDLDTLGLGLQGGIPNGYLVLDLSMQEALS
Procedure: Competitive binding of pairs of antibodies was determined by immobilizing one antibody to the sensor chip, binding soluble mesothelin to this antibody and immediately binding a second antibody to mesothelin. Pairs of antibodies which recognize the same or overlapping epitopes on mesothelin cannot bind simultaneously. All combinations of antibody pairs were tested. Representative data for MF-T are shown (A). Panel B depicts the relative positions of epitopes of seven anti-mesothelin antibodies, in which competition is depicted by overlapping circles.
Epitope grouping experiments were performed using Biacore by monitoring simultaneous binding of pairs of anti-mesothelin antibodies to immobilized mesothelin. Briefly, the first antibody was covalently immobilized to the sensor chip through primary amine coupling using n-hydroxysuccinamide ([…]) and N-ethyl-N′-dimethylaminopropyl carbodiimide (EDC). Unoccupied binding sites on the surface were then blocked with ethanolamide. Soluble mesothelin was captured on the surface via the immobilized antibody, therefore, the epitope of the capture antibody is blocked for all bound mesothelin molecules. A second antibody was immediately passed over the surface to bind to the immobilized mesothelin. Two antibodies recognizing the same or overlapping epitopes cannot bind to the mesothelin, whereas antibodies with distinct epitopes are able to bind. […]

T1 sequence (Q13421 other isoform, or with tags, fused parts or gaps limits assumed): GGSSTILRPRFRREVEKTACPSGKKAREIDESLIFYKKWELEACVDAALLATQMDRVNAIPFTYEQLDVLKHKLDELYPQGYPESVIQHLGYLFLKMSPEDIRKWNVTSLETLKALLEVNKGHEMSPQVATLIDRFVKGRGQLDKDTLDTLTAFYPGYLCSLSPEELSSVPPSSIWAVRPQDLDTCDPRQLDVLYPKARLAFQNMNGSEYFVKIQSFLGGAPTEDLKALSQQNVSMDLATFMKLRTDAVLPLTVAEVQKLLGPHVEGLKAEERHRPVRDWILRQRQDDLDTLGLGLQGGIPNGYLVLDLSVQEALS

| Binder | EC50 [1] | EC50 [2] | binding result [3] |
| --- | --- | --- | --- |
| MF-A IgG (antibody, V domains shown) VH: QVQLVQSGAEVKKPGSSVKVSCKASGGTFSSYYFSWVRQAPGQGLEWMGGIIPKFGSANYAQKFQGRVTITADESTSTAYMELSSLRSEDTAVYYCARRTSMDYWGQGTLVTVSS VL: DIALTQPASVSGSPGQSITISCTGTSSDVGGYNYVSWYQQHPGKAPKLMIYSVSKRPSGVSNRFSGSKSGNTASLTISGLQAEDEADYYCGAWAHMSLGKVFGGGTKLTVLG | 0.05 nM | 0.8 nM | – |
| MF-L IgG (antibody, V domains shown) VH: QVQLVESGGGLVQPGGSLRLSCAASGFTFSDYAMSWVRQAPGKGLEWVSAIMYDSSSTFYADSVKGRFTISRDNSKNTLYLQMNSLRAEDTAVYYCARINYIYKGVHFDYWGQGTLVTVSS VL: DIVLTQSPATLSLSPGERATLSCRASQIVSGYLAWYQQKPGQAPRLLIYGASSRATGVPARFSGSGSGTDFTLTISSLEPEDFATYYCQQYYNFSFTFGQGTKVEIKR | 0.07 nM | 0.8 nM | – |
| MF-428 (antibody, V domains shown) VH: QVQLVESGGGLVQPGGSLRLSCAASGFTFSTYAMSWVRQAPGKGLEWVSFISGYGSSTYYADSVKGRFTISRDNSKNTLYLQMNSLRAEDTAVYYCARKMYWWSDGFDYWGQGTLVTVSS VL: DIELTQPPSVSVAPGQTARISCSGDNLRSKYAHWYQQKPGQAPVLVIYSKDNRPSGIPERFSGSNSGNTATLTISGTQAEDEADYYCSSWAHDHKVFGGGTKLTVLG | – | – | binds |

Continued by falling EC50 [1], values first:

| EC50 [1] | EC50 [2] | binding result [3] | Binder |
| --- | --- | --- | --- |
| 0.27 nM | 1.5 nM | – | MF-T IgG (antibody, V domains shown) VH: QVELVQSGAEVKKPGESLKISCKGSGYSFTSYWIGWVRQAPGKGLEWMGIIDPGDSRTRYSPSFQGQVTISADKSISTAYLQWSSLKASDTAMYYCARGQLYGGTYMDGWGQGTLVTVSS VL: DIALTQPASVSGSPGQSITISCTGTSSDIGGYNSVSWYQQHPGKAPKLMIYGVNNRPSGVSNRFSGSKSGNTASLTISGLQAEDEADYYCSSYDIESATPVFGGGTKLTVLG |
| 0.15 nM | 0.4 nM | – | MF-226 IgG (antibody, V domains shown) VH: QVELVQSGAEVKKPGASVKVSCKASGYTFTGNYINWVRQAPGQGLEWMGIINPHGGDTKYAQKFQGRVTMTRDTSISTAYMELSSLRSEDTAVYYCARWHHGTWIFDYWGQGTLVTVSS VL: DIVLTQPPSVSGAPGQRVTISCSGSSSNIGSNYVSWYQQLPGTAPKLLIYNDNQRPSGVPDRFSGSKSGTSASLAITGLQSEDEADYYCSTYDRRTFSVFGGGTKLTVLG |
| 0.11 nM | 3.9 nM | – | MF-J IgG (antibody, V domains shown) VH: QVELVQSGAEVKKPGESLKISCKGSGYSFTNYWIGWVRQMPGKGLEWMGVIMPSDSYTRYSPSFQGQVTISADKSISTAYLQWSSLKASDTAMYYCARYGHGMYGGALDVWGQGTLVTVSS VL: DIVLTQSPATLSLSPGERATLSCRASQSVRSSRLAWYQQKPGQAPRLLIYGASKRATGVPARFSGSGSGTDFTLTISSLEPEDFATYYCQQYYDFPPTFGQGTKVEIKR |
